Laboratory results from the supplement of paper PMC10567573.
± gives the standard deviation.

Test: protein stability index of a GFP-peptide fusion (GPS, HEK-293T) (PSI 1-6); higher = more stable
[1] = treatment: DMSO, c terminus: a fixed tail appended
[2] = treatment: MLN4924 1 uM, 8 h, c terminus: a fixed tail appended
[3] = treatment: DMSO, c terminus: native
[4] = treatment: MLN4924 1 uM, 8 h, c terminus: native
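Note: 24-mer peptide tiles fused after GFP, lentivirally expressed, FACS-sorted into six equal bins by GFP/DsRed ratio, decoded by Illumina sequencing, PSI is the read-weighted mean bin number.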

Sequence	protein stability index [1]	protein stability index [2]	protein stability index [3]	protein stability index [4]
DVFSENLLADVKGARAALNEIESR [STX11]	4.22 ± 0.22	4.37 ± 0.12	–	–
DVTGSVKSERRNLLEDDSDEEEDF [VAMP4]	5.57 ± 0.14	5.66 ± 0.25	–	–
DYRGPDCRYLNFTKGEEISVYVKL [MIA2]	2.45 ± 0.53	2.81 ± 0.95	–	–
EAFALPDSLLVVLDMDEGTLSFIV [SPSB4]	2.42 ± 0.21	2.53 ± 0.31	–	–
EARSYLSEEMIAEFKAAFDMFDAD [TNNC2]	4.16 ± 0.46	4.15 ± 0.23	–	–
ECIYIIEAAPRQCIELYFDEKYSI [NETO1]	3.08 ± 0.46	2.95 ± 0.32	–	–
ECPTCGHSYNVTQRRPRVLSCLHS [RNF208]	3.22 ± 0.17	3.45 ± 0.49	–	–
EDQHKLYQQIKAGAYDFPSPEWDT [CAMK2B]	4.79 ± 0.17	4.75 ± 0.12	–	–
EEAEAGEEAVPEEEGPTVVLNPHP [CHGA]	5.59 ± 0.14	5.44 ± 0.28	–	–
EEAPELDEAELDYLMDVLVGTQAL [SERTAD1]	4.05 ± 0.25	4.22 ± 0.16	–	–
EEGDEDDWASNKVMFKIGDLGHVT [WEE1]	4.1 ± 0.23	4.39 ± 0.2	–	–
EEKKLRRSQHARKETEFLRLKRTR [STK38L]	3.01 ± 0.16	3.25 ± 0.27	–	–
EEKKPGELKRLVESRRQQILREFE [TRIM39]	4.43 ± 0.55	4.59 ± 0.22	–	–
EEKQHLERLNKEYQEIFQQLQRSW [TRIM43]	3.84 ± 0.23	3.77 ± 0.42	–	–
EELEAKRLQCPFEQELLRRQQRLN [FAM107A]	4.59 ± 0.15	4.63 ± 0.21	–	–
EERVETTVTSLKTKVGGTNPNGGS [TPD52L1]	5.11 ± 0.28	5.19 ± 0.21	–	–
EFFSANAISDQLLGAGSDLKDFTL [ADAMTSL2]	2.97 ± 0.26	3.22 ± 0.42	–	–
EFLPQGPVAMRVAKLAINQGMEVD [AUH]	–	3.82 ± 0.18	–	–
EGEADHSGYAGELGFRAFSGSGNR [UFD1]	4.63 ± 0.25	4.69 ± 0.54	–	–
EGVPSVFNPPPSRPLQVNTADHRI [FAF2]	4.421 ± 0.042	4.503 ± 0.037	–	–
EHVLMFAKLALYPCASLLAFASTC [TMEM175]	3.42 ± 0.23	3.14 ± 0.5	–	–
EIDIFNPQTVGVGRARFTTYEVRM [SNX12]	2.36 ± 0.069	2.57 ± 0.44	–	–

Sequence	protein stability index [1]	protein stability index [2]	protein stability index [3]	protein stability index [4]
EIDLDSMRNLKASLENSLREVEAR [KRT18]	4.23 ± 0.28	4.23 ± 0.48	–	–
EINSHSLFSKWFSESGKLVTKMFQ [TRIP13]	2.58 ± 0.21	2.48 ± 0.42	–	–
EIPLVIKYKKAVGLKLKQEKKEAY [WDR88]	2.88 ± 0.32	2.56 ± 0.13	–	–
EKLQKEQKELQDVGQSLRIKEQEV [SASS6]	4.79 ± 0.94	5.29 ± 0.04	–	–
EKPIGSCVTNPCGPRSRCGPCNTF [KRT33B]	2.34 ± 0.24	2.52 ± 0.27	–	–
ELENLAAMDLELQKIAEKFSQRG [CHGB]	–	–	2.62 ± 0.28	3.33 ± 0.64
ELGQAVEVIYPQHSKLTDREKTNI [DENND6A]	3.69 ± 0.35	4.28 ± 0.21	–	–
ELLREGRASATTTITTAAATSVTV [ZBTB22]	3.42 ± 0.21	3.48 ± 0.28	–	–
ELNDRFANFIEKVRFLEQQNAALR [PRPH]	2.39 ± 0.21	2.71 ± 0.33	–	–
EMFPAAQQLYRHGKAYRFLFGFSA [JAGN1]	2.5 ± 0.56	2.31 ± 0.29	–	–
EMLREVDLNGDGTVDFDEFVMMLS [CABP4]	4.06 ± 0.25	4.17 ± 0.33	–	–
ENCLSASAAQTDPTTGYRRLLRFS [LOXL2]	3.34 ± 0.36	3.35 ± 0.4	–	–
ENLIMFQNLANEEVRKLTQRLEEM [MATN2]	3.58 ± 0.094	3.17 ± 0.47	–	–
ENQEKTEDQYEENSHLTSVPHWIN [ETS2]	4.97 ± 0.21	4.95 ± 0.22	–	–
ENSVTHHEVKCQGKPLAGIYRKRE [KMT5A]	4.34 ± 0.13	4.42 ± 0.34	–	–
ENYLEYRQVPGSDPACYEFLWGPR [MAGEA3]	3.12 ± 0.34	3.17 ± 0.36	–	–
EPDLRHLVLVVNTLRRIQASMAPA [SERTAD1]	2.66 ± 0.11	2.51 ± 0.14	–	–
EPPPPGKHSNKKVMRTKSSEKAAN [CPXM2]	5.09 ± 0.23	5.14 ± 0.81	–	–
EQAPAPGEATAAPAPLCGGPSAEA [TBX6]	5.5 ± 0.31	5.46 ± 0.25	–	–
EQDSGVQVEGLTVQYLGQAPELLG [ADAMTS4]	4.38 ± 0.13	4.91 ± 0.34	–	–
EQPHGRSRRREQSSSRNSHLVQHQ [ZNF8]	4.78 ± 0.23	4.76 ± 0.28	–	–
EREASPSNSCQDSTDTESNNEEQR [IKZF1]	5.24 ± 0.45	5.61 ± 0.22	–	–

Sequence	protein stability index [1]	protein stability index [2]	protein stability index [3]	protein stability index [4]
ERENVAVAKLQESQPGNAVIDKET [SDE2]	5.37 ± 0.25	5.06 ± 0.21	–	–
ERKKNLTLALEALVQLRGRLTSQD [ALG2]	2.79 ± 0.16	2.88 ± 0.48	–	–
ERMRNSRDRLLNRYRQAGSSGPGN [RPAIN]	4.12 ± 0.25	4.41 ± 0.27	–	–
ERREALCRQLSESESSLEMDDERY [CCDC6]	5.41 ± 0.11	5.27 ± 0.16	–	–
ERSVFSERTEESSAVQYFQFYGYL [CARM1]	2.08 ± 0.1	2.23 ± 0.25	–	–
ERSVVTRDIRCSEDEKLCDPNTRP [ADAMTSL2]	5.06 ± 0.31	5.41 ± 0.27	–	–
ERTRKPYNNDIDYYAKRNALRAAE [GALNT9]	4.1 ± 0.13	4.26 ± 0.24	–	–
ESAGPSRAVRQSVTSFPDADAFHH [EMD]	4.33 ± 0.86	4.44 ± 0.18	–	–
ESDYTYSSSYEQFNGELPNGRHKI [SRPK2]	4.04 ± 0.41	3.97 ± 0.49	–	–
ESEDDPVVKKIALREIRMLKQLKH [CDKL4]	2.96 ± 0.52	3.08 ± 0.33	–	–
ESIRRAQVSQVKGAARLALLQGAG [FCHSD1]	3.45 ± 0.12	3.36 ± 0.52	–	–
ESLVPFIVNDNITNNFFRFLCMT [DYNC2LI1]	–	–	3.91 ± 0.45	2.63 ± 0.67
ESYESMELACPAERSGHVAVSDGR [KLHDC2]	5.08 ± 0.069	5.09 ± 0.17	–	–
ETEEMLGKKQEYLENRIQREIALA [CHMP4C]	4.44 ± 0.14	4.58 ± 0.29	–	–
ETSVGTYESHSTSELEDLTEPEQR [TPD52L3]	5.69 ± 0.14	5.45 ± 0.28	–	–
ETSVVAQFGIKDVFDNAIRAALIS [RHOBTB2]	2.28 ± 0.19	2.38 ± 0.38	–	–
EVDGLRGTNEALLRQLRELEEQFA [PRPH]	4.35 ± 0.17	4.32 ± 0.26	–	–
EVKPKDIIHVVKDQLIGQGIIVKD [TENT5D]	3.52 ± 0.066	3.73 ± 0.25	–	–
EVLKVQTHLENPTRYHLQQARRQQ [TFE3]	3.77 ± 0.23	3.91 ± 0.33	–	–
EVNSRCYQPEPFACGIEHCSVHYV [FBXO34]	2.58 ± 0.18	2.33 ± 0.67	–	–
FCPLSLWRWQLYAAQSTKSPWNFL [CLPTM1]	2.66 ± 0.62	2.9 ± 0.51	–	–
